# Numbering of substitutions follows the chain as printed.
# T1: human SPNS2 K136A mutant (human, UniProt Q8IVW8 1-549)
# T1 sequence: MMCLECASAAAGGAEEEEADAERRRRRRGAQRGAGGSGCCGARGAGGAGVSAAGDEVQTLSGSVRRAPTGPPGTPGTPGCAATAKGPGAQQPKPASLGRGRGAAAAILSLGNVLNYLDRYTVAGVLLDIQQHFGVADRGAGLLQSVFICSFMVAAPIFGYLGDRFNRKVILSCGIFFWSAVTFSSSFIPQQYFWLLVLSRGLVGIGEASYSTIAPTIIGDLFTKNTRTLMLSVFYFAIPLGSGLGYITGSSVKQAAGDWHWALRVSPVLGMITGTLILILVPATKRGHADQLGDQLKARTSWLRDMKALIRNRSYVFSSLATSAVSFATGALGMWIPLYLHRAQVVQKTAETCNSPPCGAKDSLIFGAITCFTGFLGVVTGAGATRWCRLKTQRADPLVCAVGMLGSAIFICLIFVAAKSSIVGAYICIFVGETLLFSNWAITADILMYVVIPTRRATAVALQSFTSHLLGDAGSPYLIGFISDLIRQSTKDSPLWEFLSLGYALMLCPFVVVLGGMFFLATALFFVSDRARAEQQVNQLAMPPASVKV
# T2: human SPNS2 Q130A mutant (human, UniProt Q8IVW8 1-549)
# T2 sequence: T1 sequence with Q130A, A136K
# T3: human SPNS2 F133A mutant (human, UniProt Q8IVW8 1-549)
# T3 sequence: T1 sequence with F133A, A136K
# T4: human SPNS2 W259A mutant (human, UniProt Q8IVW8 1-549)
# T4 sequence: T1 sequence with A136K, W259A
# T5: human SPNS2 R200A mutant (human, UniProt Q8IVW8 1-549)
# T5 sequence: T1 sequence with A136K, R200A
# B1: 80-1104A (antibody, IgG2b, V domains shown)
# VH: EVQLVETGGGLVQPGSSLKLSCSTSGFTFSETWMSWVRQAPGKGLEWVGLIKDKNSNYEANYAESVKGRFTISRDDSKRRVYLQMYTLRDQDTATYYCTSHEDFYYYSSYYFDYWGQGVMVTVSS
# VL: DIVLTQSPATLSVTPGESVSLSCRASQGISTSIHWYQQKSNESPRLLIKYASQSMSGIPSRFSGSGSGTDFTLRINRVESEDFSVYYCQQSYNLPLTFGSGTKLEIKR
# B2: 96-1403F (antibody, IgG2b, V domains shown)
# VH: B1 VH with Q13R, S23A, E31D, G49A, Y58S, V66I, R79S, Y86N, S100R, S109G
# VL: B1 VL with A9P, K39R, M55I, S56A, T72I, R74S, S91T, N93S, S100P, I106V
# B3: 93-1310F (antibody, IgG2b, V domains shown)
# VH: B1 VH with S23A, E31D, G49A, Y86F, Q117H
# VL: B1 VL with E42G, M55I, S91T, N93S, K103R
# B4: 65-0810G (antibody, IgG2b, V domains shown)
# VH: EVHLVESGGGLVQPGRSMKLSCTASGFTFNNYYMAWVRQAPTKGLEWVASISTGGGYTYYRDSVKGRFTISRDNTGNTLYLQMDSLRSEDTATYYCARCWELPYWGQGVMVTVSS
# VL: QFVLTQPNSVSTNLGSTVKLSCRRSSGNIGNNYVNWYRQHEGRSPTTMIYRDDTRPDGVPNRFSGSIDRSSNSALLTINNVRPEDEAYYFCQSYSGSIYIFGGGTKLTVL
# B5: 33-0503E (antibody, IgG2b, V domains shown)
# VH: EVQLVESGGGLVRPGGSMKLSCGASGFIFDNYYMTWVRQAPTKGLEWVASISSSGGNTYYRDSVRGRFTISRDNAGNTLSLQMGSLRAEDTATYHCAKEGYRGRYFDYWGQGVMVTVSS
# VL: QVVLTQPNSVSTNLGSTVKLSCKRTTGNIGSNYVNWYQQHEGRSPTTMIYRDDERPDGVPDRFSGSIDRSSNSALLTINNVQTEDEAEYFCQSYSSGIIFGGGTKLTVL
# B6: 50-0704C (antibody, IgG2b, V domains shown)
# VH: EVQLVGSGGGLVQPGRSMKLSCEASGFTFSNHYMAWVRQAPTKGLEWVATISTGGGNTYYRDSVKGRFTISRDNARSTLSLQMDSLRSEDTATYYCARQDYSNYMGGFAYWGQGTLVTVSS
# VL: QFVLTQPNSVSTNLGSTVKLSCTRSIGNIGNNYVNWYKQYEGRSPTTMIYRDDERPDGVPDRFSGSIDRSSNSALLTINSVQTEDEADYFCQSFSSGIFIFGGGTKLTVL
# B7: 89-1207D (antibody, IgG2b, V domains shown)
# VH: B6 VH with T78I
# VL: B6 VL with S80N, I98M
# B8: 18-0211B (antibody, IgG2b, V domains shown)
# VH: B6 VH with E1A, K43R, A75T, A97T, S102T
# VL: B6 VL with M48L, E86G, K106T
# B9: 64-0807A (antibody, IgG2b, V domains shown)
# VH: EVQVVESGGGLVQPGRSMKLSCAALGFTFRDYYMAWVRQTPTKGLEWVAAISTGGGNTYYRDSVKGRFTISRDNAKSTLYLQMDSLRSDDTATYYCARNPYGNYFDYWGQGVMVTVSS
# VL: QFVLSQPNSVSTNLGSTVKLSCKRSTGNIGSNYVHWYQRHEGRSPTTLIYRDDKRPNGVPDRFSGSIDRSSNSALLTINNVQTEDEADYFCQSYSGGMYLFGGGTKLTVL
# B10: 37-0511F (antibody, IgG2b, V domains shown)
# VH: EVHLQQSGAALVRPRASVKLSCKVSGDSISRYYVHFVKQRPGQGLEWIGRIDPEDDTTKYSEKFKNRATLTADASSDTASLILSGLTSDDTATYFCSTLTGLDYWGQGVMVTVSS
# VL: DIQMTQSPPVLSTSVGDRVTLRCKPSQNVHSKLDWYQQKHGEAPKLLIYYTHNLQTGIPSRFSGSGSGTDYTLTISSLQPEDVATYYCFQYYSGWTFGGGTKLEMKR
# B11: 94-1311E (antibody, V domains shown)
# VH: EVQLQQSGAGLVRPRTSVRLSCKISGDSITAYYVHFVKQRPGQGLEWIGRIDPEDDSTKYSEKFKNKATLTADVSSSTAYLILSSLTSDDSATYFCSTLTGLDYWGQGVMVTVSS
# VL: B10 VL with T13A, R22S, P25A, N28S, S31N, T69S, Q79R, P80A
# B12: 53-0707E (antibody, IgG2b, V domains shown)
# VH: B10 VH with H3Q, A10E, A16T, S30T, N66K, R67K, D77N, S80Y, L83F, D89E
# VL: B10 VL with P25A
# B13: 83-1110B (antibody, IgG2b, V domains shown)
# VH: EVQLQQSGPEFVRPGTSVKFSCKVSGGSITSYFIHFVKQRPGQGLEWIGKIDPEDDSTKYGEKFKNKATLTADTSSNTAFLKLSSLTSEDTAIYFCTTLTGLDYWGQGVMVTVSS
# VL: DIQMTQSPPVLSAAVGDRVTLSCKASRSLNKNLDWYQQKHGETPKLLIYHTHNLQTGIPSRFSGSGSDTDYTLTISSLQTEDVATYYCYQYHSGWTFGGGTRLELRR
# Target: T1, human SPNS2 K136A mutant
# Assay: flow cytometry
row,Binder,binding ratio vs native type
1,B1,< 0.5 ratio
2,B2,< 0.5 ratio
3,B3,< 0.5 ratio
4,B4,< 0.5 ratio
5,B5,< 0.5 ratio
6,B6,< 0.5 ratio
7,B7,< 0.5 ratio
8,B8,< 0.5 ratio
9,B9,< 0.5 ratio

# Target: T2, human SPNS2 Q130A mutant
# Assay: flow cytometry
row,Binder,binding ratio vs native type
1,B6,< 0.5 ratio
2,B8,< 0.5 ratio

# Target: T3, human SPNS2 F133A mutant
# Assay: flow cytometry
row,Binder,binding ratio vs native type
1,B2,< 0.5 ratio
2,B3,< 0.5 ratio
3,B4,< 0.5 ratio
4,B6,< 0.5 ratio

# Target: T4, human SPNS2 W259A mutant
# Assay: flow cytometry
row,Binder,binding ratio vs native type
1,B4,< 0.5 ratio
2,B5,< 0.5 ratio
3,B6,< 0.5 ratio
4,B9,< 0.5 ratio
5,B10,< 0.5 ratio
6,B11,< 0.5 ratio
7,B12,< 0.5 ratio
8,B13,< 0.5 ratio

# Target: T5, human SPNS2 R200A mutant
# Assay: flow cytometry
row,Binder,binding ratio vs native type
1,B4,< 0.5 ratio
2,B5,< 0.5 ratio

# — patent US20210147523A1 (TEIJIN PHARMA, published 2021)
